Molecular target: T1, IGF-1 (human, UniProt P05019)
Test: competition, IGF-1 phage binding to IGFBP-3

T1 sequence (P05019 49-118): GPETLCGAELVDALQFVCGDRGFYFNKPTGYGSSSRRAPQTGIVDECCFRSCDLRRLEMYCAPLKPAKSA

Row | IC50 [µM] | Binder
1 | 12.8 | FECLTSVEALRGCMYG [F1-3]
2 | 2.93 | RNCFESVAALRRCMYG [F1-1]
3 | 9.2 | MDCLASVEALKWCMYG [F1-2]

Molecular target: T1, IGF-1
Test: competition, 125I-IGF-1 binding to MCF-7 cells

Row | IC50 [µM] | Binder
4 | 45.7 | FECLTSVEALRGCMYG [F1-3]
5 | 5.12 | RNCFESVAALRRCMYG [F1-1]
6 | 15.3 | MDCLASVEALKWCMYG [F1-2]

Molecular target: T1, IGF-1
Test: competition, IGF-1 phage binding to IGFBP-1

Row | IC50 [µM] | Binder
7 | 11.7 | FECLTSVEALRGCMYG [F1-3]
8 | 1.4 | RNCFESVAALRRCMYG [F1-1]
9 | 15.5 | MDCLASVEALKWCMYG [F1-2]

— US7071300 (dated 2006)
